Patent US6831161B1, “Method of affinity separation and ligands for use therein” (Affibody AB, priority 1998, dated 2004)
Residue numbers refer to the chain shown, from its start.

B1: ABDmut: ABD with Asn28 replaced by leucine, Asn42 by aspartic acid, Asn45 by aspartic acid and Asn46 by lysine (protein)
chain: MKAIFVLNAQHDEAVDANSLAEAKVLALRELDKYGVSDYYKDLIDKAKTVEGVKALIDEILAALP
B2: ABDmut54-57-58: ABDmut domain containing alanine substitutions at positions 54, 57 and 58 (protein)
chain: B1 chain with K54A, I57A, D58A
B3: ABDmut22-25-26: ABDmut domain containing alanine substitutions at positions 22, 25 and 26 (protein)
chain: B1 chain with E22A, V25A, L26A
B4: ABDmut29-30-33: ABDmut domain containing alanine substitutions at positions 29, 30 and 33 (protein)
chain: B1 chain with R29A, E30A, K33A
B5: ABDwt: Wild type Albumin Binding Protein domain from Streptococcus G148 with affinity towards human serum albumin; four asparagine residues (protein)
chain: B1 chain with L28N, D42N, D45N, K46N

Columns and labels:
[1] = target: T1, HSA (Homo sapiens, UniProt P02768); test: Binding characteristics (BIAcore) before and after treatment with 0.5 M NaOH for 24 hours; conditions: room temperature, 800 nM on BIAcore, FIG. 5
Description: In order to examine the stability of ABDwt and ABDmut, the binding characteristics were analysed before and after treatment with 0.5 M NaOH in room temperature for 24 hours. Both ABDwt and ABDmut were solubilized in 1×HBS (10 mM HEPES, pH 7.4, 150 mM NaCl, 3.4 mM EDTA, 0.005% P20) to a concentration of 800 nM and analyzed on BIAcore 2000 (Biacore AB, Uppsala, Sweden). In order to determine the activity change after exposure to a very alkaline environment, the proteins were solubilized in 0.5 M NaOH. After incubation in NaOH for 24 hours, the samples were run through a NAP-10 column (Amersham Pharmacia Biotech, Uppsala, Sweden) equilibrated with 30 mM NH4Ac. The protein containing samples were lyophilized and resolubilised in 1×HBS to a concentration of 800 nM in order to be analyzed in the BIAcore 2000.
(§1) A BIAcore 2000 instrument (Biacore AB) was used for real time affinity analysis. HSA and IgG were immobilized on two different surfaces of a CM5 sensor chip by amine coupling to the carboxylated dextran layer. This coupling was done according to the manufacturer's recommendation (Biacore AB). The IgG surface was used as a control. The samples were run through a 0.45 μm filter and injected over the surface in a random order at a flow rate of […].

[2] = target: T1, HSA; test: Alkaline resistance of affinity columns: HSA capacity after repeated 0.5 M NaOH washes; conditions: ligand on Sepharose 4B; 15 cycles of 0.5 M NaOH wash, total exposure over 6 hours; FIG. 6
Description: In order to evaluate the usability of the stabilized HSA-binding protein in biotechnology, two affinity chromatography matrices were prepared; one with the unmutated protein (ABDwt) as a control and the other with the mutated ABD (ABDmut). The matrix used was Sepharose 4B (Amersham Pharmacia Biotech, Uppsala, Sweden) with carbodiimide CMC (Sigma Aldrich, Sweden) as the coupling reagent. ABDwt (4.5 mg) and ABDmut (8.5 mg) were dissolved in 9 ml water separately. 3.5 and 5.0 ml gel was added to ABDwt and ABDmut solutions respectively. Finally 0.38 g of CMC was added to the solutions and they were incubated at room temperature over night. The gels were packed on HR columns (d=5 mm, h=43 mm) and pulsed with 0.5 M ethanolamine, 0.5 M NaCl, pH 8.3 in order to inactivate the matrix and 0.1 M NaAc, 0.5 M NaCl, pH 4 in order to wash unbounded proteins out. After this, the columns were ready to use for affinity purification of HSA.
In order to explore the difference between the ABDwt column and the ABDmut column in respect of stability against alkaline treatment, both columns were repeatedly washed with 0.5 M NaOH. By using the AKTA explorer the columns were loaded with HSA, the protein was eluted by lowering the pH (Stahl et al., (1989) supra) and finally both columns were washed with NaOH. […] The flow rate used was 60 cm/h and the eluted material was collected and analyzed in each round. […]

[3] = target: T1, HSA; type: binding; conditions: for Kaff (affinity constant, ratio between Kon and Koff): BIAcore 2000, HSA immobilized on CM5 chip
Text: as §1
Also, an analysis of the kinetic parameters was performed for the proteins that still remained active. This was done by analysing the binding behaviour in different concentrations and thereafter calculating the binding constants by using BIAevaluation 2.1 software (BIAcore AB). The concentrations used were 40-220 nM for ABDwt, 200-600 nM for ABDmut and 800-1250 nM for the NaOH treated ABDmut.

[4] = target: T1, HSA; test: HSA-binding analysis of ABDmut triple mutants on BIAcore; conditions: 200 nM, 20 μl/min, immobilised HSA on CM5 chip, FIG. 7
Text: ABDmut22-25-26, ABDmut29-30-33, and ABDmut54-57-58 proteins were produced and purified as described in Example 2. In order to analyse the binding behaviour of the different triple-mutants a BI core 2000 instrument was used. HSA was immobilised on a sensor chip surface of a CM5 sensor chip by amine coupling to the carboxylated dextran layer. As control, a sensor chip surface containing IgG was used. This coupling was done according to the manufacturers recommendation (Biacore AB). The samples of the three proteins were run through a 0.45 μm filter and injected over the surface in a random order at a flow rate of 20 μl/min. The concentration used was 200 nM and all samples were analysed three times. […] In addition, residue 62 could also be used for substitutions.

Row | Molecule | Affinity towards HSA after exposure to alkaline solution [1] | Column activity (HSA capacity) against NaOH exposure time [2] | Koff (dissociation rate) [3] [L/s] | Kon (rate at which the proteins associate) [3] | Kaff (affinity constant, ratio between Kon and Koff) [3] | Ability to bind HSA (sensorgrams) [4]
1 | B1 | has the affinity preserved | keeping the activity throughout the experiment | 0.0012 | 1.8 × 10^4 l/Ms | 1.5 × 10^7 l/M | 
2 | B2 |  |  |  |  |  | retain their ability to bind HSA
3 | B3 |  |  |  |  |  | retain their ability to bind HSA
4 | B4 |  |  |  |  |  | retain their ability to bind HSA
5 | B5 | loses the affinity towards HSA |  | 0.0013 | 9.0 × 10^4 l/Ms | 6.9 × 10^7 l/M | 
